From article PMC2981644 (Journal of molecular biology, 2010)
No end group written: not given here. Alexa 488 = Alexa Fluor 488 dye

T1: Clathrin heavy chain terminal domain (Rattus norvegicus, UniProt P11442)
T1 chain: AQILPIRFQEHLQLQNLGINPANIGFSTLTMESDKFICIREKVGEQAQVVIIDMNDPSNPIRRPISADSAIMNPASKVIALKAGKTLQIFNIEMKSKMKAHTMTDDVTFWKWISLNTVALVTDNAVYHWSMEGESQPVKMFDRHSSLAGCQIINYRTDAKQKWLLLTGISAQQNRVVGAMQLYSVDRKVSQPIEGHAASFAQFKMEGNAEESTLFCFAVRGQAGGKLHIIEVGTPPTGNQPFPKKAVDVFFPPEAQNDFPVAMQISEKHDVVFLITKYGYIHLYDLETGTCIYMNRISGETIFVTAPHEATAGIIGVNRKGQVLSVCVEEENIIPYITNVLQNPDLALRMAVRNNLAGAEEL

B1: AP180 M5 site 2 (residues 639-642 to alanines), fluorescently labelled for AUC (domain or fragment)
chain: {Alexa 488}-ASTASPAK(Alexa 488)AESSGVIDAAAAAFGSGASETQPAPQAVSSSSASADLLAGFGGSFMAPST
B2: clathrin TD, N-terminal domain of the clathrin heavy chain (aa 1-363) (domain or fragment, UniProt P49951 1-363, looked up)
chain: MAQILPIRFQEHLQLQNLGINPANIGFSTLTMESDKFICIREKVGEQAQVVIIDMNDPSNPIRRPISADSAIMNPASKVIALKAGKTLQIFNIEMKSKMKAHTMTDDVTFWKWISLNTVALVTDNAVYHWSMEGESQPVKMFDRHSSLAGCQIINYRTDAKQKWLLLTGISAQQNRVVGAMQLYSVDRKVSQPIEGHAASFAQFKMEGNAEESTLFCFAVRGQAGGKLHIIEVGTPPTGNQPFPKKAVDVFFPPEAQNDFPVAMQISEKHDVVFLITKYGYIHLYDLETGTCIYMNRISGETIFVTAPHEATAGIIGVNRKGQVLSVCVEEENIIPYITNVLQNPDLALRMAVRNNLAGAEEL
B3: Alexa488-AP180 M5 (aa 623-680), wild type, fluorescently labelled (domain or fragment)
chain: {Alexa 488}-ASTASPAK(Alexa 488)AESSGVIDLFGDAFGSGASETQPAPQAVSSSSASADLLAGFGGSFMAPST
B4: AP180 M5 fragment, binding site 1 (peptide)
chain: TAVDAFAAPSPASTASPAKA
B5: AP180 M5 site 1 (residues 667-668 to alanines), fluorescently labelled for AUC (domain or fragment)
chain: {Alexa 488}-ASTASPAK(Alexa 488)AESSGVIDLFGDAFGSGASETQPAPQAVSSSSASADAAAGFGGSFMAPST

Columns and labels:
[1] = target: B2; experiment: AUC
[2] = target: AP180 M5 (aa 623-680), wild type, middle segment of the AP180 C-terminal domain (UniProt Q05140-2 623-680); experiment: NMR titration
[3] = target: AP180 M5 site 1 (single-site AP180 M5, residues 667-668 mutated to alanines; binding site 2 mutated), Q05140; experiment: NMR titration
[4] = target: AP180 M5 site 2 (single-site AP180 M5, residues 639-642 mutated to alanines; binding site 1 mutated), Q05140; experiment: NMR titration
[5] = target: T1, Clathrin heavy chain terminal domain; experiment: NMR

Binder: B1
Kd [1]: 253 ± 8 µM

Binder: B2
KD of binding site 1 [2]: 160 ± 23 µM
KD of binding site 2 [2]: 224 ± 48 µM
Kd [3]: 168 µM
Kd [4]: 246 µM

Binder: B3
Kd [1]: 173 ± 11 µM

Binder: B4
Kd [5]: 160 µM

Binder: B5
Kd [1]: 251 ± 3 µM
